Key:
HLA-B*53:01 = assay: IEDB peptide-MHC binding, purified MHC/competitive/radioactivity; filed as Kd, often an IC50 or EC50 that approximates it; ≥ and ≤ were set here for values at or beyond the usual limits of such assays
HLA-B*54:01 = assay: as above
HLA-B*07:02 = assay: as above
HLA-B*51:01 = assay: as above
HLA-B*35:01 = assay: as above
HLA-A*33:01 = assay: as above; settings: source organism: Vaccinia virus WR
HLA-A*11:01 = assay: as above; settings: source organism: Vaccinia virus WR
HLA-A*68:01 = assay: as above; settings: source organism: Vaccinia virus WR
HLA-A*30:01 = assay: as above
HLA-A*03:01 = assay: as above; settings: source organism: Vaccinia virus WR
HLA-A*31:01 = assay: as above; settings: source organism: Vaccinia virus WR
HLA-A*02:06 = assay: as above; settings: source organism: Vaccinia virus WR
HLA-A*02:03 = assay: as above; settings: source organism: Vaccinia virus WR
HLA-A*02:02 = assay: as above; settings: source organism: Vaccinia virus WR
HLA-A*24:02 = assay: IEDB peptide-MHC binding, purified MHC/competitive/fluorescence; ≥ and ≤ were set here for values at or beyond the usual limits of such assays
HLA-A*02:01 [1] = assay: IEDB peptide-MHC binding, purified MHC/competitive/fluorescence; filed as Kd, often an IC50 or EC50 that approximates it; ≥ and ≤ were set here for values at or beyond the usual limits of such assays
HLA-A*02:01 [2] = assay: IEDB peptide-MHC binding, purified MHC/competitive/fluorescence; ≥ and ≤ were set here for values at or beyond the usual limits of such assays
[3] = source organism: Vaccinia virus WR
[4] = source organism: Zaire ebolavirus
[5] = source organism: Mammarenavirus lassaense
[6] = source organism: Triticum aestivum
[7] = source organism: SARS coronavirus Tor2
[8] = source organism: Mammarenavirus guanaritoense
[9] = source organism: Dengue virus 3 Martinique/1243/1999
[10] = source organism: Mammarenavirus brazilense
[11] = source organism: Dengue virus 1 Brazil/97-11/1997
[12] = source organism: Dengue virus 2 Jamaica/1409/1983
[13] = source organism: Human alphaherpesvirus 2
[14] = source organism: Mammarenavirus machupoense
[15] = source organism: Sudan ebolavirus
[16] = source organism: Vaccinia virus

## NPKASTISWM
HLA-B*53:01; [3]
  Kd: 8150 nM
HLA-B*54:01; [3]
  Kd: ≥ 35900 nM
HLA-B*07:02; [3]
  Kd: 94.7 nM
HLA-B*51:01; [3]
  Kd: ≥ 69600 nM
HLA-B*35:01; [3]
  Kd: 7660 nM

## TFRERYSYK
HLA-A*33:01
  Kd: 28.8 nM
HLA-A*11:01
  Kd: 43.7 nM
HLA-A*68:01
  Kd: 127 nM
HLA-A*30:01; [3]
  Kd: 0.885 nM
HLA-A*03:01
  Kd: 73.6 nM
HLA-A*31:01
  Kd: 14.6 nM

## HIKTIAVSV
HLA-A*02:06
  Kd: 1550 nM
HLA-A*02:03
  Kd: 9.6 nM
HLA-A*30:01; [3]
  Kd: 66.8 nM
HLA-A*02:02
  Kd: 3080 nM

## ICQLIIQAF
HLA-A*24:02; [4]
  IC50: 446 nM

## CPNCYDSVM
HLA-B*53:01; [5]
  Kd: 79.5 nM
HLA-B*54:01; [5]
  Kd: 4500 nM
HLA-B*07:02; [5]
  Kd: 205 nM
HLA-B*51:01; [5]
  Kd: 5710 nM
HLA-B*35:01; [5]
  Kd: 7.87 nM

## VPVLEKKVCA
HLA-B*53:01; [3]
  Kd: ≥ 26400 nM
HLA-B*54:01; [3]
  Kd: 256 nM
HLA-B*07:02; [3]
  Kd: 3000 nM
HLA-B*51:01; [3]
  Kd: ≥ 29100 nM
HLA-B*35:01; [3]
  Kd: 7680 nM

## QPQQLPQFEEI
HLA-B*53:01; [6]
  Kd: ≥ 63700 nM
HLA-B*54:01; [6]
  Kd: ≥ 63700 nM
HLA-B*07:02; [6]
  Kd: ≥ 64000 nM
HLA-B*51:01; [6]
  Kd: 14100 nM
HLA-B*35:01; [6]
  Kd: ≥ 63700 nM

## LPFYSNVTGF
HLA-B*53:01; [7]
  Kd: 79.8 nM
HLA-B*54:01; [7]
  Kd: 132 nM
HLA-B*07:02; [7]
  Kd: 563 nM
HLA-B*51:01; [7]
  Kd: 861 nM
HLA-B*35:01; [7]
  Kd: 11.5 nM

## SPSGVYQCAM
HLA-B*53:01; [7]
  Kd: 748 nM
HLA-B*54:01; [7]
  Kd: 2810 nM
HLA-B*07:02; [7]
  Kd: 6.09 nM
HLA-B*51:01; [7]
  Kd: 1070 nM
HLA-B*35:01; [7]
  Kd: 26.3 nM

## YHKILTAGL
HLA-A*24:02; [4]
  IC50: 7410 nM

## TPNNFSSIV
HLA-B*53:01; [8]
  Kd: 7580 nM
HLA-B*54:01; [8]
  Kd: 408 nM
HLA-B*07:02; [8]
  Kd: 1370 nM
HLA-B*51:01; [8]
  Kd: 1250 nM
HLA-B*35:01; [8]
  Kd: 1810 nM

## RVRNRVSTG
HLA-A*30:01; [9]
  Kd: 115 nM

## LPTSIVVPI
HLA-B*53:01; [10]
  Kd: 7.51 nM
HLA-B*54:01; [10]
  Kd: 17.7 nM
HLA-B*07:02; [10]
  Kd: 124 nM
HLA-B*51:01; [10]
  Kd: 75.8 nM
HLA-B*35:01; [10]
  Kd: 6.09 nM

## NAICSAVPVD
HLA-A*30:01; [11]
  Kd: 12100 nM

## GQLASMVKL
HLA-A*02:01 [1]; source organism: Escherichia coli 536
  Kd: 78.2 nM

## KKKTWLVHK
HLA-A*30:01; source organism: Dengue virus 4 Philippines/H241/1956
  Kd: 470 nM

## NSRSTSLSV
HLA-A*30:01; [12]
  Kd: 14.9 nM

## KRTLTPQPME
HLA-A*30:01; [9]
  Kd: 15100 nM

## ITVIDLDPIP
HLA-A*30:01; [12]
  Kd: 295 nM

## KMRRERAAY
HLA-A*30:01; [3]
  Kd: 3.04 nM

## LVSIPRTNIV
HLA-A*02:01 [1]; source organism: Variola virus
  Kd: 279 nM

## GPHETITAL
HLA-B*53:01; [13]
  Kd: 3350 nM
HLA-B*54:01; [13]
  Kd: 4850 nM
HLA-B*07:02; [13]
  Kd: 1.4 nM
HLA-B*51:01; [13]
  Kd: ≥ 77500 nM
HLA-B*35:01; [13]
  Kd: 797 nM

## KGRRQYFYG
HLA-A*30:01; [3]
  Kd: 2.85 nM

## LPSLEYGANY
HLA-B*53:01; [3]
  Kd: 13.3 nM
HLA-B*54:01; [3]
  Kd: 960 nM
HLA-B*07:02; [3]
  Kd: ≥ 45100 nM
HLA-B*51:01; [3]
  Kd: ≥ 69600 nM
HLA-B*35:01; [3]
  Kd: 15.1 nM

## AVSRGSAKLR
HLA-A*30:01; [12]
  Kd: 1210 nM

## SPMVIATTDM
HLA-B*53:01; [3]
  Kd: 747 nM
HLA-B*54:01; [3]
  Kd: 1040 nM
HLA-B*07:02; [3]
  Kd: 21.6 nM
HLA-B*51:01; [3]
  Kd: ≥ 52700 nM
HLA-B*35:01; [3]
  Kd: 66.6 nM

## KLIIDREVV
HLA-A*02:01 [1]; [3]
  Kd: 1790 nM
HLA-A*24:02; source organism: Vaccinia virus Copenhagen
  IC50: ≥ 137000 nM

## EWAFWETKK
HLA-A*24:02; [4]
  IC50: 5980 nM

## MSVISNPSK
HLA-A*30:01; [3]
  Kd: 19.7 nM

## CTKHSKDFA
HLA-A*30:01; [3]
  Kd: 231 nM

## LSRNKKPRI
HLA-A*30:01; [11]
  Kd: 7690 nM

## DARIYSDPLA
HLA-A*30:01; [12]
  Kd: 744 nM

## MLNNSLYYM
HLA-B*53:01; [14]
  Kd: 9770 nM
HLA-B*54:01; [14]
  Kd: ≥ 36700 nM
HLA-B*07:02; [14]
  Kd: ≥ 77400 nM
HLA-B*51:01; [14]
  Kd: ≥ 36700 nM
HLA-B*35:01; [14]
  Kd: 8710 nM

## RWGFRSGVP
HLA-A*24:02; [15]
  IC50: 16700 nM
HLA-A*02:01 [2]; [15]
  IC50: 16400 nM

## QGLIQYPTA
HLA-A*24:02; [4]
  IC50: 12600 nM
HLA-A*02:01 [2]; [4]
  IC50: 46100 nM

## IFGNLSPET
HLA-A*24:02; [16]
  IC50: 14000 nM
HLA-A*02:01 [2]; [16]
  IC50: 47300 nM

## KSRRLNLFS
HLA-A*30:01; [3]
  Kd: 3.28 nM
